Assay results taken from publication PMC4817131, “Human DNA polymerase α in binary complex with a DNA:DNA template-primer”.

What was measured:
[1] = molecular target: T1, DNA polymerase alpha catalytic core (p180, hPolα) (Homo sapiens, UniProt P09884 338-1259); assay: X-ray crystallography (3.3 Å); crystallized with Mg2+ and dCTP; neither bound in active site (binary complex); 50 mM Bis-Tris pH 6.5, 100 mM NaCl, 5 mM MgCl2, 23 °C; 2 nM labeled duplex, 0.1-16000 nM protein, >30 min; settings: protein: recombinant; tags: N-terminal His6-SUMO (His6-SMT) removed by SUMO protease; template 5' overhang 5 nt, one replicative end
[2] = molecular target: T1, DNA polymerase alpha catalytic core …; assay: fluorescence anisotropy; 5 mM MgCl2, no dNTP; 50 mM Bis-Tris pH 6.5, 100 mM NaCl, 5 mM MgCl2, 23 °C; 2 nM labeled duplex, 0.1-16000 nM protein, >30 min; settings: protein: recombinant; tags: N-terminal His6-SUMO (His6-SMT) removed by SUMO protease; label: 5' 6-FAM on template; template 5' overhang 20 nt, one replicative end

T1 sequence (P09884 338-1259): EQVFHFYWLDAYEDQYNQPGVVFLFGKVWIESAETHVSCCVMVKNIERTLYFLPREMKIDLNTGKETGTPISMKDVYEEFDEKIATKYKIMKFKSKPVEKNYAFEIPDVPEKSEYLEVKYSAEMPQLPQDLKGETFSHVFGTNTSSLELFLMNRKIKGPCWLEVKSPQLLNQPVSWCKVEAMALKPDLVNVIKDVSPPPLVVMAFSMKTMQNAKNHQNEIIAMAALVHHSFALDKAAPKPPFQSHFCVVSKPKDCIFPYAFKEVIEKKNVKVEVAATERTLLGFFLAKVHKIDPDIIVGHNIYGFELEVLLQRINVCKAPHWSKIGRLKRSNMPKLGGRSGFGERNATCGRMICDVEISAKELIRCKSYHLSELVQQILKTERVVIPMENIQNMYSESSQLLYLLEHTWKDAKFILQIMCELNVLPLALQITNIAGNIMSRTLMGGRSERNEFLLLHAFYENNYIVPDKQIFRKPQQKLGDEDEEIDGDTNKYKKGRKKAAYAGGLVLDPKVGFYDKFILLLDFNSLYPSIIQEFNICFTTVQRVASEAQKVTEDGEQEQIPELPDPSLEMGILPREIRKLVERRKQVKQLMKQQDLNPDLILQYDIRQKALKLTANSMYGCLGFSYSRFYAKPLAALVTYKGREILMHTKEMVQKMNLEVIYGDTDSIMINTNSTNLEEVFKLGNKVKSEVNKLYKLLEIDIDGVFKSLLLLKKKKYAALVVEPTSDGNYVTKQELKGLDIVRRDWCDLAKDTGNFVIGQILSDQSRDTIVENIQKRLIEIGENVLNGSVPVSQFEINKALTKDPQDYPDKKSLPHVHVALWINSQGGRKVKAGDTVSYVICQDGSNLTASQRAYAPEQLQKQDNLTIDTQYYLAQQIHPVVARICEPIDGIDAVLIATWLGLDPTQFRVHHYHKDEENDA

B1: 13-nt DNA primer/18-nt DNA template (dsDNA)
DNA 1: TAATGGTAGGGGAAGGAT
DNA 2: ATCCTTCCCCTAC
modifications: primer 3'-terminal dideoxycytosine
binding result [1]: binds

B2: 10-nt RNA primer/30-nt DNA template (DNA:RNA)
DNA: CTTAGGATGGAGAAAGGTAAGATGAAGCCG
RNA: CGGCUUCAUC
Kd [2]: ~320 nM

B3: 10-nt DNA primer/30-nt DNA template (dsDNA)
DNA 1: B2 DNA
DNA 2: CGGCTTCATC
Kd [2]: ~430 nM
